Patent US9075059B2, “Compositions and methods for detecting plectin-1 as a biomarker for cancer” (University of Virginia Patent Foundation, priority 2009, dated 2015)
Blank lines part the entries; values can stand above or below the molecule they belong to. Non-standard residues stand in square brackets, D forms with d. No end group written: not given here. *: point of attachment. DOTA = O=C(O)CN1CCN(CC(=O)O)CCN(CC(=O)*)CCN(CC(=O)O)CC1; βAla = NCCC(=O)O

Key:
Plectin-1 [1] = biological target: T1, Plectin-1 (Homo sapiens, UniProt Q15149); assay: In vitro competition assay: 111In-tPTP versus unlabeled tPTP or ncPTP on L3.6 cells; type: binding; design: L3.6 cells were plated on a 96 well plate and incubated with 111In-tPTP and increasing log concentrations of tPTP or scrambled tetramer; endogenous in cells; host or cells: L3.6 pancreatic cancer cells; settings: competition with 111In-labeled tPTP, 1 hr room temperature, read-out: Ki (inhibition dissociation constant)
[2] = test system: tumors from orthotopically implanted L3.6 cells; assay: SPECT/CT in vivo imaging of orthotopic PDAC; settings: labeled peptide
Description: Anesthesia (1%-2% isoflurane in oxygen) was delivered throughout the imaging. CT acquisition used 200 evenly spaced projections spanning 200 degrees over approximately 5 minutes. Mice are repositioned axially for pinhole SPECT scanning 60 evenly spaced projection views were obtained over 180 degrees using two gamma cameras simultaneously. The acquisition time was approximately 30 minutes. The two cameras were fitted with 1 mm diameter tungsten pinholes. […] The reconstructed SPECT voxel size was 0.65×0.65×0.65 mm on a 60×60×60 image matrix. All SPECT images were corrected for radioactivity decay but not for gamma ray attenuation.

Plectin-1 [3] = biological target: T1, Plectin-1; assay: Affinity of tetrameric versus monomeric plectin-1 targeted peptide; type: binding; design: L3.6 cells were plated on a 96 well plate and incubated with 111In-tPTP and increasing log concentrations of tPTP or scrambled tetramer; endogenous in cells; host or cells: L3.6 pancreatic cancer cells
Plectin-1 [4] = biological target: T1, Plectin-1; assay: competition with 111In-tPTP on L3.6 cells, gamma counting

T1 sequence (Q15149 whole entry): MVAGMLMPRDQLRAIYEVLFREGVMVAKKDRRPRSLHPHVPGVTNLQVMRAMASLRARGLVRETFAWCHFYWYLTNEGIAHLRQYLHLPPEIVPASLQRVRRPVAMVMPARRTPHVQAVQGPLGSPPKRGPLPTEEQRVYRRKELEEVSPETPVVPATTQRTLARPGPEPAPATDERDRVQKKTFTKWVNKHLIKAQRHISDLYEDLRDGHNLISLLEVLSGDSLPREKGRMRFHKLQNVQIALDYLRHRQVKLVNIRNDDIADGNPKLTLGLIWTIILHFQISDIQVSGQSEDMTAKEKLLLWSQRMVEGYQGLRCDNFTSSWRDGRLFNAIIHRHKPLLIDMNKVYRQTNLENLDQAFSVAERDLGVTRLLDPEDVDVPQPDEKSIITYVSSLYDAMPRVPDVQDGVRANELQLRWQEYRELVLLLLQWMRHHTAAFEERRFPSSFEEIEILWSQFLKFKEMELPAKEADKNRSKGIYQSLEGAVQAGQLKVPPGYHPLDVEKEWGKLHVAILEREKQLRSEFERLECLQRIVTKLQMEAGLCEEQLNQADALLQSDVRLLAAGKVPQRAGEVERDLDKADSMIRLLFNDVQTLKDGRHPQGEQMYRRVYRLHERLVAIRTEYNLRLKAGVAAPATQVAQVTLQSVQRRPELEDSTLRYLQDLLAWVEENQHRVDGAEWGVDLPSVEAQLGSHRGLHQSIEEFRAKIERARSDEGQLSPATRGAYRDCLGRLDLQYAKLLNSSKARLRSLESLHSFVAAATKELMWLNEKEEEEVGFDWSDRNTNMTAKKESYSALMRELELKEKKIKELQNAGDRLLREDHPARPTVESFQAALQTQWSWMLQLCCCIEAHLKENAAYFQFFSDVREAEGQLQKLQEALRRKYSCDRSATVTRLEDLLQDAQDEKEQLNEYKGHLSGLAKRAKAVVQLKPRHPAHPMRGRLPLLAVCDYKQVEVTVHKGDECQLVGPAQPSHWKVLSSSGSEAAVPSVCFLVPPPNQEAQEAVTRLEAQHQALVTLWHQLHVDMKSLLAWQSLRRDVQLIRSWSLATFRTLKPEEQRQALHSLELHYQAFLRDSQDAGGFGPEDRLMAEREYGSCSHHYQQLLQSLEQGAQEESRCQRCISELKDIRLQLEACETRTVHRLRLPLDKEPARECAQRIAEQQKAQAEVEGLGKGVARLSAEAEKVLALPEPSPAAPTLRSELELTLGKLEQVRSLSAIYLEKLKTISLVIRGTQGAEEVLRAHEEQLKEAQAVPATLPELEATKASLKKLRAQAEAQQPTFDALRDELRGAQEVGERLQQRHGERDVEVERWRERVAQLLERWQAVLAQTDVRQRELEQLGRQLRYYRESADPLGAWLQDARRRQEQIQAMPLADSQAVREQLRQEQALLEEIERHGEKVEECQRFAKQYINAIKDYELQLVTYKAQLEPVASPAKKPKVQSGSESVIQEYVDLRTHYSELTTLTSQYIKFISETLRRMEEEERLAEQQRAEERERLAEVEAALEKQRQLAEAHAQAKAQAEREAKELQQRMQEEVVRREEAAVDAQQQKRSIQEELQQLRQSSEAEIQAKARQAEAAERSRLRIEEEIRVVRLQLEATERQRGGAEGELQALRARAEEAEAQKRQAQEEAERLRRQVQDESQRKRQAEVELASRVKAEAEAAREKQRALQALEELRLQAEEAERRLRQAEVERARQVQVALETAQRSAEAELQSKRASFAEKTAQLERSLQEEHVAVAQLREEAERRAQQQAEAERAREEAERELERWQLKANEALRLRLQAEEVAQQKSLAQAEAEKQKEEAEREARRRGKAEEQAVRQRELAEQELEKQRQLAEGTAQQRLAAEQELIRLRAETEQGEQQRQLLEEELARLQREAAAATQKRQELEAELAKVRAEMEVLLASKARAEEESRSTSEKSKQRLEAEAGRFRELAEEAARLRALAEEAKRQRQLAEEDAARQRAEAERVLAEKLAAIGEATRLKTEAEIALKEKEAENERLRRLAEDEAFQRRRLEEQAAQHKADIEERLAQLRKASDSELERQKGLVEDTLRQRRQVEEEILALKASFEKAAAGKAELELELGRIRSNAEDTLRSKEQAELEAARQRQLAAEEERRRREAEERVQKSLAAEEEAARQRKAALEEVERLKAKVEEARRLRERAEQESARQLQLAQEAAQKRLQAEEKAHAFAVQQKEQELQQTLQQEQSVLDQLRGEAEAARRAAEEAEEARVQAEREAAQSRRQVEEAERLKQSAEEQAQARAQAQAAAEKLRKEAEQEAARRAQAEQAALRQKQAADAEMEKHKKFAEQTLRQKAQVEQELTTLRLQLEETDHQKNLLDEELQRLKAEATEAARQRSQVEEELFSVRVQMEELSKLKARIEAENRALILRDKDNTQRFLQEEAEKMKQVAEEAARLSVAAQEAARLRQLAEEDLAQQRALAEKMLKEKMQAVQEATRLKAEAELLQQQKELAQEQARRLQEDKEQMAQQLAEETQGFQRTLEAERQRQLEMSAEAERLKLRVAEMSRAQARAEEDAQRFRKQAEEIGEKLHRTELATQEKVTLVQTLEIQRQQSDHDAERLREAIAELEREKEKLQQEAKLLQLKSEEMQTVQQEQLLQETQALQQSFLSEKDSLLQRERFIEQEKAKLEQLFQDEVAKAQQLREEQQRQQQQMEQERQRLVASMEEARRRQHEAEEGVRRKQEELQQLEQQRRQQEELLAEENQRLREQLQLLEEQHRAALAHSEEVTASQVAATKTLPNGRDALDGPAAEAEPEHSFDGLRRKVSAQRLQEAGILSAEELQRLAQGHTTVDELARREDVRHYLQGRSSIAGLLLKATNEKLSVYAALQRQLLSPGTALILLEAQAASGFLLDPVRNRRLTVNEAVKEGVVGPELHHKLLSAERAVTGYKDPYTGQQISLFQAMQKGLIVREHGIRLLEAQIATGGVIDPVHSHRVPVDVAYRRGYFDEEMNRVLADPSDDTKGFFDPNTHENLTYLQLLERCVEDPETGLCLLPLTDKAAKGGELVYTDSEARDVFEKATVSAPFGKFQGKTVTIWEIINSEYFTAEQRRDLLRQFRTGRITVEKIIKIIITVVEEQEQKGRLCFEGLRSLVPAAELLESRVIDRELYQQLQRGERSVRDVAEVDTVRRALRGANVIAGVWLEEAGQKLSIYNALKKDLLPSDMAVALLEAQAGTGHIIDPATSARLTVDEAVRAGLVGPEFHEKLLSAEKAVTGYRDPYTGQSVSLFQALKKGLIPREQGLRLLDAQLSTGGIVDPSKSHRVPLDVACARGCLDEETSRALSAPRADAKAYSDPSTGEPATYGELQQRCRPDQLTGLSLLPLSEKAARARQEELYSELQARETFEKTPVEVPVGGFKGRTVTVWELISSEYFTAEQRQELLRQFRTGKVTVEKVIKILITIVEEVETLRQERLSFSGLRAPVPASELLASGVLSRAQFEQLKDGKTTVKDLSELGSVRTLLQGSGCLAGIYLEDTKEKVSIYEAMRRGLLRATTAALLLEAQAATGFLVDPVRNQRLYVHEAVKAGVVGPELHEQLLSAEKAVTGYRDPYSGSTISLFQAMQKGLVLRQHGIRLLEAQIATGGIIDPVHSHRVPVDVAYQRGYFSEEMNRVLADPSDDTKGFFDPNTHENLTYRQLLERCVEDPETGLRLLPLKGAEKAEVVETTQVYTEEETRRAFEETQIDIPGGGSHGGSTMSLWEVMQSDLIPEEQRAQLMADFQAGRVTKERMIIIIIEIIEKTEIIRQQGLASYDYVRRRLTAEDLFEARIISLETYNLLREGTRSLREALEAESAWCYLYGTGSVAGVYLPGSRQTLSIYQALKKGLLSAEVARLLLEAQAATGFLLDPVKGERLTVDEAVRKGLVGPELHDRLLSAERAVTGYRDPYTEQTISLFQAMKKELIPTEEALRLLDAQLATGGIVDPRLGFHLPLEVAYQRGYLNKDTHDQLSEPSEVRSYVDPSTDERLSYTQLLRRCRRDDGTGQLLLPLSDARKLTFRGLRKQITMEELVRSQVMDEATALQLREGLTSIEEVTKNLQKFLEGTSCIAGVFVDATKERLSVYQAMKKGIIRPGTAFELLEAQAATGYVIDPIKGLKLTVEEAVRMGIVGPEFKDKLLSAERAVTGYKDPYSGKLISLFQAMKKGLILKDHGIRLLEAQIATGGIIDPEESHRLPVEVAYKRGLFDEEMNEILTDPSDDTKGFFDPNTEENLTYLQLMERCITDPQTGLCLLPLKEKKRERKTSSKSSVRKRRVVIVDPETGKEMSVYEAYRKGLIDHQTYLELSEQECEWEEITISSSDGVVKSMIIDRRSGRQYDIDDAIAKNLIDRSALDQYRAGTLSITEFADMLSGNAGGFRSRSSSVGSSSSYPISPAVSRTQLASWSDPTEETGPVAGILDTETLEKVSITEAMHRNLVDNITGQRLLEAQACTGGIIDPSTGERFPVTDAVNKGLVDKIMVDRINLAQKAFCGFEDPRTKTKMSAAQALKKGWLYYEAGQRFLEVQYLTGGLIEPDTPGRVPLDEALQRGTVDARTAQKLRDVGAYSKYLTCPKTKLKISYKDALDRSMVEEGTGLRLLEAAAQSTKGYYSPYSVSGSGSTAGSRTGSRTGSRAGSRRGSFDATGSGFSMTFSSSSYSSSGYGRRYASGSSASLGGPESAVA

Molecule: ncPTP-4(βAKHVMSKQGGS (PEG5000))KKKDOTAβA-NH2 (peptide [βAla]KHVMSKQGGS; chain Lys-Lys-Lys(DOTA)-{βAla-NH2}; not fully specified (some residues, C-terminus); also: tetramer: four chain-1 arms on lysine core, each arm's Ser joined via PEG5000 to the lysine core)
Ki (Plectin-1 [1]): 2860 nM

B1: ncPTP-4(β… (PEG5000))KKKDOTAβA-NH2 (peptide)
peptide: [βAla]KHVMSKQGGS-PEG5000
chain: Lys-Lys-Lys
modifications: not fully specified (some residues, C-terminus); also: tetramer: four arms joined via PEG5000 to lysine core, attachment lysines not given here
Ki (Plectin-1 [4]): 2860 nM

The next lines start with results.

affinity (Plectin-1 [3]): 160 nmol
Molecule: KTLLPTP [monomeric peptide]
time before visualization [2]: 48 h

Ki (Plectin-1 [4]): 830 nM
B2: tetrameric plectin-1 targeted peptide (tPTP) complex, (β…(PEG5000))4 KKKKDOTAβA-NH2 (peptide)
peptide: [βAla]KTLLPTPGGS-PEG5000
chain: KKKK(DOTA)-{βAla-NH2}
modifications: not fully specified (some residues); also: branched core [(arm)2-Lys]2-Lys-Lys(DOTA): four arms, C-terminal Ser of each joined through PEG5000 to an amino group of the core
